These results are taken from patent publication CN110218251A (FUZHOU MAIXIN BIOTECHNOLOGY DEV CO LTD, dated 2019).

In the experiment the target is T1, MSH2蛋白 (endogenous, in HCT8 and Biu-87 cell lysates and in human tissue sections) (human, UniProt P43246 2-934).
T1 construct: Endogenous protein; also called MutS homolog 2
Nature of the experiment: IHC on tonsil tissue.

T1 sequence (P43246 2-934 limits assumed): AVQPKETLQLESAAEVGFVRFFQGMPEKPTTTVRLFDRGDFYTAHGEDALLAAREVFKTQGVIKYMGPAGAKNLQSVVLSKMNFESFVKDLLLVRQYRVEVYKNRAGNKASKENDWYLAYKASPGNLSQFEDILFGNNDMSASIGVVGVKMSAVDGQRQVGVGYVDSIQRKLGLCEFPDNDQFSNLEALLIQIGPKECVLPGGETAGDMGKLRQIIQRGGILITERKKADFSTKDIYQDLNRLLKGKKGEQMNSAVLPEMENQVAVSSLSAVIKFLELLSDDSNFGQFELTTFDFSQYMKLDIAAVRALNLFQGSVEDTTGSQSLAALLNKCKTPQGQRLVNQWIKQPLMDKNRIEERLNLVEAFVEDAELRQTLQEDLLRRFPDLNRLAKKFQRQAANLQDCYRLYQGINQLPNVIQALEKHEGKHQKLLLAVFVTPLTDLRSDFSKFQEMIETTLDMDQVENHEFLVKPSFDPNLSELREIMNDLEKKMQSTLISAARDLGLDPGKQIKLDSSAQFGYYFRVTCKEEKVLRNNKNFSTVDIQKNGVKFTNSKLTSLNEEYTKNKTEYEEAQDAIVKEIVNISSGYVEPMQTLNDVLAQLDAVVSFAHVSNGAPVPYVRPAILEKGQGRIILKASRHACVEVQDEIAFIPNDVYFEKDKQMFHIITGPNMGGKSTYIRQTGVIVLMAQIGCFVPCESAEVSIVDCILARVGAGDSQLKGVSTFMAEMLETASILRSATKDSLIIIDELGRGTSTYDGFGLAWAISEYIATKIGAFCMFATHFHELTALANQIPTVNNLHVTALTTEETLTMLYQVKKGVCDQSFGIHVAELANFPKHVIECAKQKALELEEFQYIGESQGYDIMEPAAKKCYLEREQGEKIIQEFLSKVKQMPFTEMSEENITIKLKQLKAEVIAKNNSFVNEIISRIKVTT

B1: 抗MSH2蛋白单克隆抗体(1B11-14-16) (antibody, V domains shown)
VH: QVQLQQSGAELMKPGASVRISCKATGYTFTRYWIEWVKERPGHGLEWIGEILPGSGGTNYNEKFKGKATFTADTSSNTVHMQLNSLTSEDSAVYYCVKREGPYWGRGTLVTVSA
VL: DVLMTQTPLSLPVSLGDQASISCRSSQSIVYRTGSTFLEWYLQKPGQSPKLLIYKVSNRFSGVPDRFSGSGSGTDFTLKISRVEAEDLGVYYCFQGSHLPYTFGGGTKLEIK
notes: also called MSH2(1B11-14-16)单克隆抗体; 1B11-14-16的MSH2
With B1, the binding result is listed as “binds”.
